Data as given in US20120034254A1.

What was measured:
Assay in all cases: SPR
CD4 = CD4 (UniProt P01730)
Full length Hxbc2 gp120 = molecular target: Full length Hxbc2 gp120
WT Hxbc2 core = molecular target: WT Hxbc2 core

## Full length Hxbc2 gp120
CD4
  Kd: 6.29 nM

## WT Hxbc2 core
CD4
  Kd: 15.1 nM

## b12
Full length Hxbc2 gp120
  Kd: 2.63 nM
WT Hxbc2 core
  Kd: 2.67 nM
